Stoichiometry N data for four substances are collected here from paper PMC2649111.

Holding throughout (experiment): SEC
Assay [1] has as its target Full-length cytoplasmic C-terminal domain (VARC 1–392) of PfEMP1 (PF08_0141), unphosphorylated (P. falciparum 3D7).
In assay [2] the target is VARC 1–291 of PfEMP1 (PF08_0141) (P. falciparum 3D7).
For assay [3], the target named is VARC 87–291 of PfEMP1 (PF08_0141) (P. falciparum 3D7).
Assay [4] addresses VARC 87–392 of PfEMP1 (PF08_0141) (P. falciparum 3D7).

Broadly, the stoichiometry N is the number of molecules, sites or subunits per partner or assembly.

“Full-length cytoplasmic C-terminal domain (VARC 1–392) of PfEMP1 (PF08_0141), unphosphorylated (domain or fragment)”: the stoichiometry N in assay [1] came out at 2.

In turn, “VARC 1–291 of PfEMP1 (PF08_0141) (domain or fragment)” yielded a stoichiometry N in assay [2] of 2.

Turning to “VARC 87–291 of PfEMP1 (PF08_0141) (domain or fragment)”, in assay [3], the stoichiometry N amounted to 2.

Turning to “VARC 87–392 of PfEMP1 (PF08_0141) (domain or fragment)”, the stoichiometry N in assay [4] came to 2.
